Source: patent US6362395 (WASHINGTON STATE UNIVERSITY RESEARCH FOUNDATION, dated 2002)

Target: calmodulin (unlabeled, as used in the gel mobility-shift and kinase assays of Example 2) (spinach, UniProt P04353 2-149)
Assay: gel mobility-shift, non-denaturing PAGE, 0.5 mM CaCl2

binding result: no binding
B1: synthetic peptide CCaMK 328-340 (peptide, UniProt Q43531 328-340, looked up)
peptide: KLRAAAIASVLSS
